Data from US20080171343A1 (UNIVERSITY OF MANCHESTER, published 2008).
Numbering of substitutions follows the chain as printed. Names and notes keep the numbering of the source.

B1: FHCCP6-8(Y384) (other)
chain: GTLKPCDYPDIKHGGLYHENMRRPYFPVAVGKYYSYYCDEHFETPSGSYWDHIHCTQDGWSPAVPCLRKCYFPYLENGYNQNYGRKFVQGKSIDVACHPGYALPKAQTTVTCMENGWSPTPRCIRVKTCSKSSIDIENGFISESQYTYALKEKAKYQCKLGYVTADGETSGSITCGKDGWSAQPTCI
modifications: in some assays biotinylated with EZlink N-hydroxysuccinimide-LC Biotin (sites not given)
notes: Made by site-directed mutagenesis (H384Y) of FHCCP6-8(H384); also called FHCCP68 (Y384 allotype); Y384 variant
B2: FHCCP6-8(H384) (other)
chain: B1 chain with Y83H
modifications: in some assays biotinylated with EZlink N-hydroxysuccinimide-LC Biotin (sites not given)
notes: Used unlabelled (detected with a goat polyclonal anti-FH antibody) or biotinylated; also called FHCCP68 (H384 allotype); H384 variant

Columns and labels:
[1] = molecular target: T1, deglycosylated FMOD (bovine, UniProt P13605 19-376, N-linked oligosaccharides (including keratan sulphate) removed with N-glycosidase F); assay: microtitre plate assay, deglycosylated against untreated FMOD coated
T1 construct: The same polypeptide as FMOD, without its N-linked glycans; also called N-glycosidase F-treated FMOD
T1 sequence (looked up): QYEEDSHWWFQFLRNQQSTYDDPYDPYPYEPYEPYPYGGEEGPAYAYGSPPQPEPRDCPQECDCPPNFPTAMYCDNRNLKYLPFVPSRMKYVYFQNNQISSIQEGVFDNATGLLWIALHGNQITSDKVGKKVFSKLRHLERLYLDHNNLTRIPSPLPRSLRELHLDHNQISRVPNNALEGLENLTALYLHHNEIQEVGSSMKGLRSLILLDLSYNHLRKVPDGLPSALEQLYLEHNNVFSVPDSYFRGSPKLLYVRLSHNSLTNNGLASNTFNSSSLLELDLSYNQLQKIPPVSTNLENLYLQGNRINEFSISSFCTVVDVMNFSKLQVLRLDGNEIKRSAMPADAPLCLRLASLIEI

[2] = molecular target: T2, C-reactive protein (UniProt P02741 19-224); assay: plate assay: CRP coated on microtitre wells (10 ug/ml), unlabelled protein in fluid phase, detection with goat polyclonal anti-FH antibody and HRP secondary, A490, background subtracted
T2 construct: Bought; Coated on microtitre plates at 10 ug/ml; also called CRP; recombinant CRP
T2 sequence (looked up): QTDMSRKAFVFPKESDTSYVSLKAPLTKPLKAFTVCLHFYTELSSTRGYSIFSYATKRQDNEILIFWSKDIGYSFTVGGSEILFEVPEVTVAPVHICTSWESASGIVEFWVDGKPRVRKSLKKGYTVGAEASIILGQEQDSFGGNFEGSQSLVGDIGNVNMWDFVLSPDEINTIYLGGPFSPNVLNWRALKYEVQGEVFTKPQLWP
Procedure: CRP or FMOD was coated overnight at 4° C. onto microtiter plates (Maxisorp, Nunc) at a concentration of 10 μg/ml in 75 mM sodium carbonate buffer, pH 9.6. Wells treated only with coating buffer or 1% (w/v) BSA (Sigma) in coating buffer (for the assays involving FMOD) were used as negative controls. Between each step the wells were washed extensively with 50 mM Tris-HCl, 150 mM NaCl, 0.1% (v/v) Tween 20, pH 7.5. All wells were blocked with 1% (w/v) BSA (Sigma) in phosphate buffered saline (Invitrogen) for 1 hour at 37° C. FHCCP6-8(H384) and FHCCP6-8(Y384) were added at varrying concentrations in the binding buffer (50 mM HEPES, 100 mM NaCl, 2 mM CaCl₂, pH 7.4); full length FH served as a positive control. In the experiments with FMOD, 50 μg/ml BSA was included in the binding buffer. The amount of bound protein was assessed using a goat polyclonal anti-FH antibody (Quidel, Cat # A312) followed by HRP-labeled anti-goat secondary antibodies (Dako) and the OPD development kit (Dako). Detection of biotinylated protein was performed using a StreptABComplex/HRP-kit from Dako, and in both cases the absorbance at 490 nm was measured to quantify protein binding.

[3] = molecular target: T3, fibromodulin (bovine, UniProt P13605 19-376, glycosylated (N-linked oligosaccharides including keratan sulphate), as isolated); assay: plate assay: FMOD coated on microtitre wells at 10 ug/ml, biotinylated protein in fluid phase, detection with streptavidin peroxidase kit, A490, background subtracted
T3 construct: Isolated from tissue; coated on microtitre plates at 10 ug/ml; also called FMOD; untreated (glycosylated) FMOD
T3 sequence (looked up): T1 sequence (looked up)
Procedure: FIG. 12: Binding of FHCCP6-8(H384), FHCCP6-8(Y384) and full length FH to FMOD. A. FMOD was coated in microtitre plate wells at a concentration of 10 μg/ml. BSA was used as the negative coating control. FHCCP6-8(H384) and FHCCP6-8(Y384) recombinant proteins or full length FH were incubated in fluid phase and bound protein was detected with a specific polyclonal antibody. B. FMOD was coated in microtitre plate wells as described for A. Biotinylated versions of FHCCP6-8(H384) and FHCCP6-8(Y384) were incubated in the wells and bound protein was detected with a streptavidin peroxidase kit. C. Untreated (glycosylated) and N-glycosidase F-treated FMOD were assessed for binding full length FH in a microtitre plate based binding assay. Bound protein was detected with a specific polyclonal antibody. […]
CRP or FMOD was coated overnight at 4° C. onto microtiter plates (Maxisorp, Nunc) at a concentration of 10 μg/ml in 75 mM sodium carbonate buffer, pH 9.6. […] The amount of bound protein was assessed using a goat polyclonal anti-FH antibody (Quidel, Cat # A312) followed by HRP-labeled anti-goat secondary antibodies (Dako) and the OPD development kit (Dako). Detection of biotinylated protein was performed using a StreptABComplex/HRP-kit from Dako, and in both cases the absorbance at 490 nm was measured to quantify protein binding.

Binder	binding result [1]	EC50 (read off the curve) [2] [µg/mL]	binding result [3]
B1	binds	~1	binds
B2	binds		binds
